Test results taken from IntAct's records for PubMed 16357825.

B1: Retinal rod rhodopsin-sensitive cGMP 3',5'-cyclic phosphodiesterase subunit gamma (Homo sapiens), P18545 (parent)
chain: MNLEPPKAEFRSATRVAGGPVTPRKGPPKFKQRQTRQFKSKPPKKGVQGFGDDIPGMEGLGTDITVICPWEAFNHLELHELAQYGII
B2: Retinal rod rhodopsin-sensitive cGMP 3',5'-cyclic phosphodiesterase subunit gamma (Homo sapiens), P18545 (parent)
chain: B1 chain
partner: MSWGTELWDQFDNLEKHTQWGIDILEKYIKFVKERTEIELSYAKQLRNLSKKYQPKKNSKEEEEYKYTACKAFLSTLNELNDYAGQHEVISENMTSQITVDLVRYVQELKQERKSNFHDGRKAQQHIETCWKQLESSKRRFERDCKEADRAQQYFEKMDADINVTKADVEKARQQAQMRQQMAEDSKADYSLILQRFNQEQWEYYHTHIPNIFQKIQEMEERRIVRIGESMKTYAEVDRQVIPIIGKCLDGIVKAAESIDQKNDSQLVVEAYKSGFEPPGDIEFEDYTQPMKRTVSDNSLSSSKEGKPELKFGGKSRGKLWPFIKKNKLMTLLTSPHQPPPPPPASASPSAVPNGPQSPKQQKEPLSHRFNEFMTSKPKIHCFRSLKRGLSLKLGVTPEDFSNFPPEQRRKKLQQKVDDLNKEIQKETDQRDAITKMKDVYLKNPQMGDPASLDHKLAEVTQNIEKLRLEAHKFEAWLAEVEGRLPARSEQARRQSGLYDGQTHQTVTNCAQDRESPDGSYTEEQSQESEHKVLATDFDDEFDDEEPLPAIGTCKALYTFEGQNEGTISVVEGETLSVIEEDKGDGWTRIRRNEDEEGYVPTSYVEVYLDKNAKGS

Experiments:
[1] = variants of: B1; conditions: with pacn2_rat Pacsin2, Q9QY17
[2] = variants of: B1; conditions: with grb2_rat Grb2, P62994
[3] = variants of: B1; conditions: with src_rat Src
[4] = variants of: B2; conditions: with fnbp1_rat Fnbp1, Q8R511

Row | Variant | effect of a mutation on the interaction [1] | effect of a mutation on the interaction [2] | effect of a mutation on the interaction [3] | effect of a mutation on the interaction [4]
1 | P20A | decreasing interaction | decreasing interaction | disrupting interaction | –
2 | P23A | decreasing interaction | decreasing interaction | disrupting interaction | –
3 | P20A | – | – | – | disrupting interaction
4 | P23A | – | – | – | disrupting interaction
